The source of these data is publication PMC4906023.

Usually Kd stands for the constant that tells how readily two partners part at equilibrium. A lower Kd goes with higher affinity.

The target in the experiment is His6-GyrB subunit of M. tuberculosis DNA gyrase (M. tuberculosis H37Rv) (UniProt P9WG45). Kind of experiment: SPR; BIAcore T200; […], association 180 s, dissociation 600 s; HBS-N. In general terms: Surface plasmon resonance follows binding to a sensor surface in real time, without labels.

B1: MParE2 without the His6-tag (natural protein)
chain: MTRRLRVHNGVEDDLFEAFSYYADAAPDQIDRLYNLFVDAVTKRIPQAPNAFAPLFKHYRHIYLRPFRYYVAYRTTDEAIDILAVRHGMENPNAVEAEISGRTFE
In turn, B1 came in with a dissociation constant Kd of 4.75 µM.
